Sequences and labels used below:
T1: A199 N-terminal neo-epitope peptide AGQPLQ-Acp-C (SEQ ID NO:51) conjugated to BSA (human, not fully specified (residue 8); printed as AGQPLQ-Acp-C; also: C-terminal Cys conjugated to BSA carrier)
T1 construct: BSA carrier; also called A199-BSA peptide
T1 peptide: AGQPLQ[Ahx]C

T2: L198 N-terminal neo-epitope peptide LAGQPL-Acp-C (SEQ ID NO:52) conjugated to BSA (human, not fully specified (residue 8); printed as LAGQPL-Acp-C; also: C-terminal Cys conjugated to BSA carrier)
T2 construct: BSA carrier; also called L198-BSA peptide
T2 peptide: LAGQPL[Ahx]C

T3: G200 N-terminal neo-epitope peptide GQPLQE-Acp-C (SEQ ID NO:50) conjugated to BSA (human, not fully specified (residue 8); printed as GQPLQE-Acp-C; also: C-terminal Cys conjugated to BSA carrier)
T3 construct: also called G200-BSA peptide; G200-peptide
T3 peptide: GQPLQE[Ahx]C

B1: 23D5, recombinant IgG2c antibody (antibody, V domains shown)
VH: EVQLVESGGGLVKPGGSLKLSCSASGFTFSRYAMSWVRQSPEKRLEWVAEINSGGSYSFYSDTVTGRFTISRDNAKNTLFLEMSSLRSEDTAIYYCARQLSGTDYYGTDYWGQGTSVTVSS
VL: DVLMTQTPLSLPVSHGDQASISCRSSQSLLYSNGNTYLEWYLQKPGQSPKLLIYKVSNRFSGVPDRFSGSGSGTDFTLKISRVEAEDLGVYYCFQGSHVPYTFGGGTKLEIK
B2: 17G4, recombinant IgG2c antibody (antibody, V domains shown)
VH: B1 VH with S101T
VL: B1 VL
B3: 7B10, recombinant IgG2c antibody (antibody, V domains shown)
VH: AVQLVESGGGLVKPGRSLKLSCAASGFTFSSYAMSWVRQFPDKRLDWVAEISSGGGSTNYLDTVTGRFTISRDNAKNTLYLEMNSLRSEDTAMYYCARQLVGTDYYGTDYWGQGTSVTVSS
VL: B1 VL with H15L, S28N, L29I, L30V
notes: also called 7610
B4: 28F2, recombinant IgG2c antibody (antibody, V domains shown)
VH: QIQLVQSGPDLKKPGETVKISCKASGYTFTNYAMHWMKQAPGKALKWMGWINTYTGEPTFADDFKGRFAFSLETSASTAYLQINSLKNEDMATYFCAREGYYDRSHYFDYWGQGTTLTVSS
VL: B1 VL with H15L, Q27L, L30V, Y31H, S32G, N33D, F94L, V99I, Y101F, G105S
B5: 4E6, recombinant IgG2c antibody (antibody, V domains shown)
VH: EVQLVESGGDLVKPGGSLKLSCAASGFTFSSYAMSWVRQSPEKRLEWVAEISGSGSRDHYTDSVTGRFTVSRDNAKNTLYLEMSSLRSEDTAIYYCARQLTGTDYYGTDYWGQGTSVTVSS
VL: B1 VL with T7I, H15L, L29I, L30V, K44R, V99L
notes: also called recombinant anti-G200 antibody 4E6
B6: 7C7, recombinant IgG2c antibody (antibody, V domains shown)
VH: EVQLVESGGGLVKPGGSLRLSCAASGFTFSSFAMSWVRQSPERRLEWVAEISRGGGYAFYSDTVTGRFTISRDNARNTLFLEMGSLRSEDTAMYYCSRQLTGTDYYAMDYWGQGTSVTVSS
VL: B1 VL with M4L, P12F, H15L, L29I, L30V, S32T, H98Q, I111L

We go through six molecules from patent US20220242939A1 (BIOARCTIC, published 2022).

The term EC50 denotes the concentration that produces a half-maximal response. The kon is a measure of how fast the partners come together.

Substitutions are numbered along the chain they refer to. Non-standard residues stand in square brackets, D forms with d. No end group written: not given here. Ahx = NCCCCCC(=O)O

For the first assay, the target named is T4, His-tagged recombinant full-length ApoE4, 10xHIS-ApoE4(1-299) (human, UniProt P02649 19-317).
T4 construct: also called ApoE4-FL-HIS
T4 sequence (P02649 other isoform, or with tags, fused parts or gaps limits assumed): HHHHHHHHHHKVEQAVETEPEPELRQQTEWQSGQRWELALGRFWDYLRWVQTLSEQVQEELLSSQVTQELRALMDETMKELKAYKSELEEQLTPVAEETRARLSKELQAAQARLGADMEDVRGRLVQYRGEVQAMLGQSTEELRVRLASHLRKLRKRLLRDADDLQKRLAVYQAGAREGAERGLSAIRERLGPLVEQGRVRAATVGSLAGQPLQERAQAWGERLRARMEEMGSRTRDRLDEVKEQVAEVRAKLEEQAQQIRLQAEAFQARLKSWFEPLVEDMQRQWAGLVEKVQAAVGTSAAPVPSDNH
The assay can be described thus: direct ELISA, target coated at 1 ug/ml, antibody in 3-fold dilutions from 500 ng/ml, OD 450 nm. The protocol:
(§1) Selectivity evaluation of recombinant antibodies by direct ELISA: The direct ELISA described below was used to evaluate the binding selectivity of the recombinant antibodies produced in Example 11.
(§2) The screening was performed according to standard ELISA protocols. Briefly, 1 μg/ml solutions of BSA-conjugated neo-epitope peptides, recombinant C-terminal ApoE fragment, negative control peptide and full-length ApoE were prepared by dilution in PBS. 50 μl/well were added to an ELISA half-area 96 well microtiter plate, the plate was sealed with adhesive sealer and incubated over night at 4° C. After discarding the solution, the plates were blocked with 150 μl/well of protein-free blocking solution (Pierce) for 1 h at room temperature with shake (900 rpm). The plates were washed four times with washing buffer containing 0.28 mM NaH₂PO₄, 2.5 mM Na₂HPO₄, 150 mM NaCl, 0.1% TWEEN®-20 and 0.0075% Kathon CG. Generated recombinant antibodies of interest were serially diluted 3-fold with a starting dilution at 0.5 μg/ml (mixed 1:1 with dilution buffer: PBS with 0.1% BSA and 0.05% TWEEN®-20). An anti-ApoE C-terminal antibody was used as a reference antibody (ApoE E-8 mouse monoclonal, cat. no. sc-393302; Santa Cruz Biotechnology). 50 μl/well were added into the ELISA plates and incubated for 2 h at room temperature with shake (900 rpm). The plates were washed four times as described previously. […] After another wash (as described previously), 50 μl/well of K-Blue® aqueous substrate (Neogen) were added, and the reaction was stopped after 5-15 min with 50 μl/well of 0.5 M […]. The optical density at 450 nm was read using an ELISA reader (Tecan).
With B1, the binding result is listed as “no binding (tested: 500 ng/ml)”.

For the molecule B2, the binding result was “no binding (tested: 500 ng/ml)”.

In the case of B3, the binding result is recorded as “no binding (tested: 500 ng/ml)”.

Consider B4, for which the binding result is “no binding (tested: 500 ng/ml)”.

B5: the binding result is listed as “no binding (tested: 500 ng/ml)”.

In the next assay the target is T1, A199 N-terminal neo-epitope peptide …. The description is as above. The protocol:
as §1, §2
As for B1, the binding result is reported as “no binding (tested: 500 ng/ml)”.

Regarding B2, the binding result is on record as “no binding (tested: 500 ng/ml)”.

As for B3, the binding result was “no binding (tested: 500 ng/ml)”.

Regarding B6, the binding result was “no binding (tested: 500 ng/ml)”.

For B5, the binding result is “no binding (tested: 500 ng/ml)”.

Another assay deals with T2, L198 N-terminal neo-epitope peptide …. The description is as above. The protocol:
as §1, §2
For the molecule B1, the binding result was “no binding (tested: 500 ng/ml)”.

As for B2, the binding result is reported as “no binding (tested: 500 ng/ml)”.

In the case of B3, the binding result is “no binding (tested: 500 ng/ml)”.

As to B4, the binding result is on record as “no binding (tested: 500 ng/ml)”.

On to B6, for which the binding result is recorded as “no binding (tested: 500 ng/ml)”.

With B5, the binding result was “no binding (tested: 500 ng/ml)”.

In the next assay the target is T5, recombinant C-terminal ApoE fragment G200-HIS (ApoE-G200-H299-10xHIS) (human, UniProt P02649 218-317).
T5 construct: also called G200-HIS fragment
T5 sequence (P02649 other isoform, or with tags, fused parts or gaps limits assumed): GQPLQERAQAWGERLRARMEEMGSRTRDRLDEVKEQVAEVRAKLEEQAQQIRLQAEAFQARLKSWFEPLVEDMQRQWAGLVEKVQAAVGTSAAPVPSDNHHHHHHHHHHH
The assay can be described thus: second direct ELISA, G200-HIS coated at 0.1 µM. As to the method:
as §2, with “(Tecan). The optical density was plotted against the antibody concentration to generate concentration-response curves (FIG. 16).” for “(Tecan).”
(§3) These were added in the same molarity (0.1 μM) to provide an equal number of molecules available for binding by the antibodies (BSA-coupled peptides were coated at 1 μg/ml as before).
Consider B1, for which the EC50 worked out at 10.1 ng/mL.

Regarding B2, the EC50 came to 7.9 ng/mL.

For B3, the EC50 was found to be 10.7 ng/mL.

Consider B4, for which the half-maximal effective concentration (EC50) was determined as 21.5 ng/mL.

Regarding B6, the concentration for a half-maximal effect (EC50) was found to be 18.1 ng/mL.

In the case of B5, the EC50 turned out to be 9.5 ng/mL.

The target of another assay is T5, recombinant C-terminal ApoE fragment …. The assay can be described thus: SPR (Biacore 8K), G200-HIS amine-coupled on CM5, antibody as analyte, bivalent analyte fit (KD1).
B1: the Kd stood at 299 nM.

For B2, the Kd came out at 141 nM.

Turning to B3, the Kd turned out to be 330 nM.

B4: the Kd came out at 9830 nM.

For B6, the Kd amounted to 417 nM.

For a further assay the target is unchanged. As to the kind of experiment: SPR (Biacore 8K), G200-HIS amine-coupled on CM5, antibody as analyte, bivalent analyte fit (ka1). On the technique in general: In SPR one partner is held on a chip, and binding of the other changes the refractive index at the surface.
B1: the kon was found to be 260000 M⁻¹ s⁻¹.

Regarding B2, the on-rate (kon) worked out at 8.73e+06 M⁻¹ s⁻¹.

Consider B3, for which the kon turned out to be 1.2e+06 M⁻¹ s⁻¹.

On to B4, for which the kon was found to be 4.98e+06 M⁻¹ s⁻¹.

Regarding B6, the kon turned out to be 2.88e+06 M⁻¹ s⁻¹.

For B5, the association rate constant (kon) amounted to 8.15e+07 M⁻¹ s⁻¹.

The next assay concerns the target T3, G200 N-terminal neo-epitope peptide …. The assay can be described thus: second direct ELISA, G200-BSA peptide coated at 1 µg/ml. As to the method:
as §2, with “(Tecan). The optical density was plotted against the antibody concentration to generate concentration-response curves (FIG. 16).” for “(Tecan).”
as §3
A general note: An ELISA detects its analyte on a solid surface through an enzyme-linked reagent.
Consider B1, for which a half-maximal effect (EC50) was put at 11.6 ng/mL.

B2 had a concentration giving a half-maximal response (EC50) of 5.1 ng/mL.

Consider B3, for which the EC50 turned out to be 7.3 ng/mL.

In the case of B4, the EC50 was found to be 7.2 ng/mL.

B6 yielded an EC50 of 13 ng/mL.

Regarding B5, the midpoint of the response, the EC50, lay at 6.9 ng/mL.
